Measured values from ChEMBL document CHEMBL4007386, “Design, synthesis of allosteric peptide activator for human SIRT1 and its biological evaluation in cellular model of Alzheimer's disease” (Eur J Med Chem, 2017).

Legend:
Conditions in all cases: Homo sapiens
[1] = compound: N=C(N)NCCC[C@H](NC(=O)[C@H](Cc1c[nH]c2ccccc12)NC(=O)[C@@H](N)CS)C(=O)O; experiment: Allosteric activation of SIRT1 (unknown origin) expressed in bacterial expression system assessed as Vmax for substrate at 40 uM using Fluorophore labeled-Arg-His-Lys-Lys (Ac) as substrate incubated for 30 mins in presence of NAD+ by fluorimetric method (reference value: 1666.67 uM)
[2] = compound: N=C(N)NCCC[C@H](NC(=O)[C@H](Cc1c[nH]c2ccccc12)NC(=O)[C@@H](N)CS)C(=O)O; experiment: Allosteric activation of SIRT1 (unknown origin) expressed in bacterial expression system assessed as Vmax for substrate at 80 uM using Fluorophore labeled-Arg-His-Lys-Lys (Ac) as substrate incubated for 30 mins in presence of NAD+ by fluorimetric method (reference value: 1666.67 uM)
[3] = compound: N=C(N)NCCC[C@H](NC(=O)[C@H](Cc1c[nH]c2ccccc12)NC(=O)[C@@H](N)CS)C(=O)O; experiment: Allosteric activation of SIRT1 (unknown origin) expressed in bacterial expression system assessed as Vmax for substrate at 120 uM using Fluorophore labeled-Arg-His-Lys-Lys (Ac) as substrate incubated for 30 mins in presence of NAD+ by fluorimetric method (reference value: 1666.67 uM)
[4] = compound: N=C(N)NCCC[C@H](NC(=O)[C@H](Cc1c[nH]c2ccccc12)NC(=O)[C@@H](N)CS)C(=O)O; experiment: Allosteric activation of SIRT1 (unknown origin) expressed in bacterial expression system assessed as Vmax for substrate at 160 uM using Fluorophore labeled-Arg-His-Lys-Lys (Ac) as substrate incubated for 30 mins in presence of NAD+ by fluorimetric method (reference value: 1666.67 uM)
[5] = compound: N=C(N)NCCC[C@H](NC(=O)[C@H](Cc1c[nH]c2ccccc12)NC(=O)[C@@H](N)CS)C(=O)O; experiment: Allosteric activation of SIRT1 (unknown origin) expressed in bacterial expression system assessed as apparent Km for substrate at 40 uM using Fluorophore labeled-Arg-His-Lys-Lys (Ac) as substrate incubated for 30 mins in presence of NAD+ by fluorimetric method (reference value: 507 uM)
[6] = compound: N=C(N)NCCC[C@H](NC(=O)[C@H](Cc1c[nH]c2ccccc12)NC(=O)[C@@H](N)CS)C(=O)O; experiment: Allosteric activation of SIRT1 (unknown origin) expressed in bacterial expression system assessed as apparent Km for substrate at 80 uM using Fluorophore labeled-Arg-His-Lys-Lys (Ac) as substrate incubated for 30 mins in presence of NAD+ by fluorimetric method (reference value: 507 uM)
[7] = compound: N=C(N)NCCC[C@H](NC(=O)[C@H](Cc1c[nH]c2ccccc12)NC(=O)[C@@H](N)CS)C(=O)O; experiment: Allosteric activation of SIRT1 (unknown origin) expressed in bacterial expression system assessed as apparent Km for substrate at 120 uM using Fluorophore labeled-Arg-His-Lys-Lys (Ac) as substrate incubated for 30 mins in presence of NAD+ by fluorimetric method (reference value: 507 uM)
[8] = compound: N=C(N)NCCC[C@H](NC(=O)[C@H](Cc1c[nH]c2ccccc12)NC(=O)[C@@H](N)CS)C(=O)O; experiment: Allosteric activation of SIRT1 (unknown origin) expressed in bacterial expression system assessed as apparent Km for substrate at 160 uM using Fluorophore labeled-Arg-His-Lys-Lys (Ac) as substrate incubated for 30 mins in presence of NAD+ by fluorimetric method (reference value: 507 uM)

B1: NAD-dependent protein deacetylase sirtuin-1 (Homo sapiens), Q96EB6 (protein)
chain: MADEAALALQPGGSPSAAGADREAASSPAGEPLRKRPRRDGPGLERSPGEPGGAAPEREVPAAARGCPGAAAAALWREAEAEAAAAGGEQEAQATAAAGEGDNGPGLQGPSREPPLADNLYDEDDDDEGEEEEEAAAAAIGYRDNLLFGDEIITNGFHSCESDEEDRASHASSSDWTPRPRIGPYTFVQQHLMIGTDPRTILKDLLPETIPPPELDDMTLWQIVINILSEPPKRKKRKDINTIEDAVKLLQECKKIIVLTGAGVSVSCGIPDFRSRDGIYARLAVDFPDLPDPQAMFDIEYFRKDPRPFFKFAKEIYPGQFQPSLCHKFIALSDKEGKLLRNYTQNIDTLEQVAGIQRIIQCHGSFATASCLICKYKVDCEAVRGDIFNQVVPRCPRCPADEPLAIMKPEIVFFGENLPEQFHRAMKYDKDEVDLLIVIGSSLKVRPVALIPSSIPHEVPQILINREPLPHLHFDVELLGDCDVIINELCHRLGGEYAKLCCNPVKLSEITEKPPRTQKELAYLSELPPTPLHVSEDSSSPERTSPPDSSVIVTLLDQAAKSNDDLDVSESKGCMEEKPQEVQTSRNVESIAEQMENPDLKNVGSSTGEKNERTSVAGTVRKCWPNRVAKEQISRRLDGNQYLFLPPNRYIFHGAEVYSDSEDDVLSSSSCGSNSDSGTCQSPSLEEPMEDESEIEEFYNGLEDEPDVPERAGGAGFGTDGDDQEAINEAISVKQEVTDMNYPSNKS
[1]
  Vmax: 1430 µM
[2]
  Vmax: 1250 µM
[3]
  Vmax: 1110 µM
[4]
  Vmax: 1110 µM
[5]
  Km: 236 µM
[6]
  Km: 168 µM
[7]
  Km: 72 µM
[8]
  Km: 75 µM
